This is an account of results in patent US20160194407A1.

In this assay the target is T1, recombinant murine CD73 protein (form not stated) (murine) (UniProt Q61503).
T1 sequence (looked up): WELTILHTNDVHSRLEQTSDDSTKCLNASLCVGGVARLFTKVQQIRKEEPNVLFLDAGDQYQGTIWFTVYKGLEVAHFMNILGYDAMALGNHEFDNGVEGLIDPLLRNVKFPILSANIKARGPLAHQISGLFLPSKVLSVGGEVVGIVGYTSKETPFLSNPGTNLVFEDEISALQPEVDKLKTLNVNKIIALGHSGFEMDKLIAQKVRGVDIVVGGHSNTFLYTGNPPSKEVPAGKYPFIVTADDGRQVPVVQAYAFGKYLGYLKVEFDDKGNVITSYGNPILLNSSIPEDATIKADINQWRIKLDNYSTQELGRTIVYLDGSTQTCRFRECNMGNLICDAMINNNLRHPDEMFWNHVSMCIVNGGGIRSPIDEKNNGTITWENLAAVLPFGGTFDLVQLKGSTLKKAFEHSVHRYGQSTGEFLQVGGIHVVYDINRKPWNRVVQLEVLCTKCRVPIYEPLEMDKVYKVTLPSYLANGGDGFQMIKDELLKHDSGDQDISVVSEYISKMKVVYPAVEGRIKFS
Put plainly: Binding, Mouse; assay not described.

B1: CD730047 antibody (antibody, IgG1, V domains shown)
VH: EVQLVQSGGGVVQPGRSLRLSCAASGFTFSSYGMHWVRQAPGKGLEWVAVISYDGSIKYYADSVKGRFAISRDNAKNTLYLQMNSLRREDTAMYYCASGLTGVAGALGVWGRGTLVTVSS
VL: QSVLTQPPSASGAPGQRVTISCSGSSSNIGSNTVNWYQRLPGAAPQLLIYNNDQRPSGIPDRFSGSKSGTSGSLVISGLQSEDEADYYCAAWDDSLSGNVFGTGTKVTVL
Consider B1, for which the 1/EC50 turned out to be 0 nM⁻¹.

B2: CD730042 antibody (antibody, IgG1, V domains shown)
VH: GVQLVQSGGGLVQPGGSLRLSCAASGFTFSSYGMHWVRQAPGKGLEWVAVISYDGSIKYYADSVKGRFTISRDDSKNALYLQMNSLRAEDTAVYYCSTLSGSYGYFDYWGRGTLVTVSS
VL: QSVLTQPASVSGSPGQSITISCAGTSSDVGGYNYVSWYQQHPGKAPKLMIYEGSKRPSGVSNRFSGSKSGNTASLTISGLQAEDEADYYCSSYTTRSTRVFGGGTKLTVL
As for B2, the 1/EC50 was 0 nM⁻¹.
